# Legend:
# [1] = target: T1, Anti-CD28 Fab (SEQ ID NOs: 202, 203); assay: phage binding ELISA, Fab on plate;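 further: clonal phage supernatant ELISA, wells preincubated with CD28 antigen or blocking buffer only, then bound phage detected using HRP-linked anti-M13 antibody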
# T1 construct: biotinylated and captured on neutravidin coated plates in the phage ELISA
# Experimental: (§1) After panning, phage infected bacteria were plated out and colonies picked into 96 well blocks. Clonal phage was then amplified and separated from bacterial cells via centrifugation.
# (§2) Clonal phage were harvested as crude supernatants and screened via standard ELISAs. […] Prior to the addition of clonal phage, wells were incubated with blocking buffer and CD28 antigen or blocking buffer alone. Without washing or aspirating, clonal phage supernatants were then added to the wells and incubated for a short time. Wells were then washed followed by detection of bound phage using a horse radish conjugated anti-M13 antibody. Clonal phage of interest were then sent for sequence analysis.
# [2] = target: T1, Anti-CD28 Fab (SEQ ID NOs: 202, 203); assay: phage binding ELISA, Fab on plate, CD28 as competitor
# Experimental: as §1, §2
# [3] = target: anti-CD28 Fab (SEQ ID NOs: 202, 203); assay: phage ELISA, Fab on plate;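 further: ELISA of crude clonal phage supernatants on the plate, wells preloaded with CD28 antigen or only blocking buffer, captured phage read out via HRP-linked anti-M13 antibody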
# [4] = target: anti-CD28 Fab (SEQ ID NOs: 202, 203); assay: phage ELISA, Fab on plate, CD28 antigen as competitor;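 further: wells pre-incubated with CD28 antigen in blocking buffer (reference: blocking buffer only) before adding crude clonal phage supernatant, bound phage read with HRP-coupled anti-M13 antibody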
# Experimental: as §1, §2
# T1 sequence (VH, as listed by the source, chain 1 of 2): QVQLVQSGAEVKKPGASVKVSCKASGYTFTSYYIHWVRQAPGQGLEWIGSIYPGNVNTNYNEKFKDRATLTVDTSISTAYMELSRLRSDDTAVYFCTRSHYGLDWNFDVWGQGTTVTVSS
# T1 sequence (VL, as listed by the source, chain 2 of 2): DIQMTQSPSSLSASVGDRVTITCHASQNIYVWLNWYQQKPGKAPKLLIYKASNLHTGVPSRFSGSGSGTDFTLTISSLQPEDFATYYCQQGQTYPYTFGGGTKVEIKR
# Sequence of anti-CD28 Fab (SEQ ID NOs: 202, 203) (VH, as listed by the source, chain 1 of 2): as the sequence (VH, as listed by the source, chain 1 of 2) above
# Sequence of anti-CD28 Fab (SEQ ID NOs: 202, 203) (VL, as listed by the source, chain 2 of 2): as the sequence (VL, as listed by the source, chain 2 of 2) above
Binder,"Anti-CD28 Fab (SEQ ID NOs: 202, 203) signal [1]",Anti-CD28 Fab signal in the presence of CD28 [2],Anti-CD28 Fab signal [3],Anti-CD28 Fab signal in the presence of CD28 [4]
RCAAGVMYDWPVCL [Phage-1043],1.7,0.07,–,–
TCSAGAGYPWPLCY [Phage-991],1.92,0.08,–,–
TCSAGAYYAWPVCL [Phage-1004],1.84,0.08,–,–
SCAAVFSFPWSPCL [Phage-999],1.87,0.08,–,–
MCSAGAMYPWPLCL [Phage-988],1.93,0.07,–,–
LCKPGVPNSWPTCL [Phage-984],1.95,0.06,–,–
TCSAGAHYPWPDCI [Phage-985],1.95,0.07,–,–
SCAAGFDYGWPMCL [Phage-1197],–,–,1.16,0.06
TCSAGAHYVWPMCF [Phage-994],1.91,0.17,–,–
SCSAGAGWAWPMCF [Phage-1196],–,–,1.16,0.08
TCSAGAHFAWPMCF [Phage-1045],1.69,0.07,–,–
SCSAGATWAWPQCF [Phage-1194],–,–,1.19,0.08
PCSAGATYAWLYCV [Phage-1011],1.81,0.06,–,–
TCAAGASYPWPACL [Phage-998],1.89,0.09,–,–
TCSAGAHWTWPLCF [Phage-1044],1.69,0.06,–,–
TCSAGATYAWPACY [Phage-1002],1.84,0.14,–,–
TCSAGATYNWPWCF [Phage-1047],1.68,0.05,–,–
LCSAGAMYPWPVCL [Phage-1193],–,–,1.19,0.08
LCNAGAMYKWPTCL [Phage-987],1.94,0.06,–,–
LCNAGAPYKWPTCL [Phage-1050],1.66,0.07,–,–
TCAAGAMWQWPVCL [Phage-1010],1.81,0.06,–,–
SCAAGAHYVWPFCF [Phage-1046],1.68,0.08,–,–
TCSAGATYSWPQCL [Phage-1003],1.84,0.07,–,–

Binder,"Anti-CD28 Fab (SEQ ID NOs: 202, 203) signal [1]",Anti-CD28 Fab signal in the presence of CD28 [2],Anti-CD28 Fab signal [3],Anti-CD28 Fab signal in the presence of CD28 [4]
LCKPGVPYQWPTCF [Phage-1009],1.82,0.05,–,–
TCSAGFSYSWPACF [Phage-1000],1.86,0.07,–,–
LCRAGAMWPWPTCL [Phage-1005],1.83,0.06,–,–
LCEEFFHYSWPLCL [Phage-1190],–,–,1.21,0.06
SCSAVFSYRWPKCL [Phage-1195],–,–,1.18,0.06
TCAAGAYWTWPACF [Phage-990],1.93,0.09,–,–
PCSDGVAYPWPYCV [Phage-1191],–,–,1.2,0.06
TCTAGFSYNWPMCF [Phage-1001],1.85,0.06,–,–
QCAAGASYPWPVCL [Phage-1008],1.82,0.07,–,–
SCAAGAAYPWPACL [Phage-1013],1.8,0.06,–,–
TCSAGATWAWPSCF [Phage-993],1.92,0.1,–,–
TCSAGAHYEWPYCL [Phage-1007],1.82,0.11,–,–
SCADGFNYVWPLCF [Phage-1198],–,–,1.14,0.08
TCSAGATWPWPICL [Phage-997],1.89,0.08,–,–
TCSAGATYIWPMCF [Phage-995],1.9,0.08,–,–
SCAAGAHWSWPVCF [Phage-1192],–,–,1.2,0.08
TCSAGATFHWPQCF [Phage-1006],1.83,0.08,–,–
TCSAGAMWTWPYCF [Phage-989],1.93,0.08,–,–
TCSAGASYPWPVCL [Phage-1048],1.67,0.07,–,–
SCSAGASLQLSICL [Phage-992],1.92,0.06,–,–
TCRAGATYNWPFCL [Phage-996],1.9,0.07,–,–
TCAAGANYSWPACL [Phage-1199],–,–,1.14,0.08

# — patent publication US20260274955A1 (JANUX THERAPEUTICS, published 2026)
